The labels stand for the following.
B1: Azoarcus group I ribozyme (parent)
chain: GUGCCUUGCGCCGGGAAACCACGCAAGGGAUGGUGUCAAAUUCGGCGAAACCUAAGCGCCCGCCCGGGCGUAUGGCAACGCCGAGCCAAGCUUCGGCGCCUGCGCCGAUGAAGGUGUAGAGACUAGACGGCACCCACCUAAGGCAAACGCUAUGGUGAAGGCAUAGUCCAGGGAGUGGCGAAAGUCACACAAACCGG

In the data set the parent is B1. As to the kind of experiment: reverse-splicing fitness (ratio to wild type); higher = more active; in vitro selection; Mg2+ level not given. The method in brief: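 An in vitro group I ribozyme library with randomized positions was T7-transcribed and gel-purified. In triplicate, 10 pmol RNA in EPPS pH 7.5 was reacted with 50 pmoles of a 30-nt RNA substrate for 1 h at 37 °C across several added MgCl2 levels (1–48 mM), then stopped with EDTA. Products were reverse transcribed from a substrate-complementary primer, PCR-amplified and sequenced (HiSeq 4000). Fitness is a variant's read proportion after selection over that before, normalised to wild type.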
Turning to C82G A120U C150U C169A U176G, the reverse-splicing fitness amounted to 0.00166.

On to C82G A111G A120G C150U U176G, for which the reverse-splicing fitness stood at 0.00986.

In the case of C82U A111C A145C C169A U176G, the reverse-splicing fitness was 0.00613.

Regarding C82U A111G A145G C169G U176A, the reverse-splicing fitness was 0.02.

Take C82G A111C A120C A145G C150A C169G U176A: the reverse-splicing fitness is 0.0156.

On to A111U A120C C150G C169G, for which the reverse-splicing fitness was determined as 0.0073.

With C82A A111C A120G A145U C150U U176C, the reverse-splicing fitness stood at 0.0188.

With C82A A120G A145U C150G U176G, the reverse-splicing fitness stood at 0.00365.

Take C82G A111C A145C C150G C169U: the reverse-splicing fitness is 0.00892.

Turning to A111U A145C C150G C169G U176C, the reverse-splicing fitness came to 0.00846.

Take C82G A111U A120U A145U C150A C169G U176C: the reverse-splicing fitness amounted to 0.003.

C82U A120G C150G C169A U176C: the reverse-splicing fitness was found to be 0.00979.

In the case of C82A A111G A120C A145G C150U C169G U176A, the reverse-splicing fitness stood at 0.0161.

Turning to C82G A111C A145C C169U, the reverse-splicing fitness is 0.0125.

Regarding C82U A111G A145C C150U C169U U176G, the reverse-splicing fitness was 0.00493.

On to C82A A111C A120G A145G C169G, for which the reverse-splicing fitness was 0.00963.

Regarding C82A A111G A120U A145U C150U U176G, the reverse-splicing fitness worked out at 0.00398.

Turning to C82A A111G C150G C169U U176C, the reverse-splicing fitness is 0.0125.

For the variant C82U A111U A120G C150A C169G U176G, the reverse-splicing fitness was found to be 0.00529.

As to C82U A111G A120U A145G C150G C169U U176G, the reverse-splicing fitness is 0.00292.

In the case of C82A A111C U176G, the reverse-splicing fitness worked out at 0.0172.

For C82U A145G C150A U176G, the reverse-splicing fitness was found to be 0.0228.

Turning to C82G A111G A120U A145G C169G U176G, the reverse-splicing fitness is 0.00184.

As to C82G A120U C150U C169G U176A, the reverse-splicing fitness was 0.00481.

In the case of C82U A111C A120G A145G C150U C169U U176G, the reverse-splicing fitness is 0.00449.

For C82G A111U A145G C150U C169A, the reverse-splicing fitness is 0.0114.

For C82G A120U A145C C150U C169A U176C, the reverse-splicing fitness was 0.00192.

With C82U A111C A120U A145G C150A C169U U176C, the reverse-splicing fitness was 0.00385.

On to C82G A111C A120C C150G C169G U176G, for which the reverse-splicing fitness came out at 0.00663.

As for C82G A111C A120G A145G C150G C169U U176A, the reverse-splicing fitness stood at 0.0106.

A111G A120C C150G C169G U176G: the reverse-splicing fitness stood at 0.00385.

A111U A120G C150A C169U U176C: the reverse-splicing fitness stood at 0.0205.

Turning to A111G A120C A145C C150A C169A, the reverse-splicing fitness came to 0.00705.

Consider C82U A111U A120C A145U C150G C169G U176C, for which the reverse-splicing fitness worked out at 0.0054.

Consider C82U A120U A145G U176A, for which the reverse-splicing fitness came out at 0.0429.

With C82G A145C C150G C169G U176A, the reverse-splicing fitness stood at 0.00973.

For A111U A120C A145G C169A U176G, the reverse-splicing fitness is 0.0041.

C82A A111C A145G C150U C169G U176A: the reverse-splicing fitness worked out at 0.0115.

As to C82G A120C A145U C150A C169U U176C, the reverse-splicing fitness is 0.013.

As to A120G A145U C150A C169A, the reverse-splicing fitness was 0.0459.

Consider C82A A111U A120U A145U C150U C169G U176C, for which the reverse-splicing fitness came to 0.00351.

On to C82U A120G A145G C150U C169U U176G, for which the reverse-splicing fitness stood at 0.00441.

Regarding C82G A111G A120G A145G C150G C169U, the reverse-splicing fitness amounted to 0.00986.

For the variant C82G A145G C169U U176C, the reverse-splicing fitness is 0.0155.

Consider A111C A120G A145U C150A C169G, for which the reverse-splicing fitness stood at 0.0221.

Consider A111U A120C A145C C169G U176G, for which the reverse-splicing fitness stood at 0.00463.

Consider C82A A111U A120U A145C, for which the reverse-splicing fitness came to 0.0205.

Consider C82U A120C A145U C150U C169A U176G, for which the reverse-splicing fitness came out at 0.00423.

For A111G A145G C150U C169A U176G, the reverse-splicing fitness was 0.00505.

In the case of C82G A111U A120C A145C C150A C169G U176C, the reverse-splicing fitness amounted to 0.0279.

In the case of A111U A120C A145C C150U, the reverse-splicing fitness was found to be 0.17.

For the variant A111U A120C C150A C169A U176G, the reverse-splicing fitness was determined as 0.00474.

Regarding C82U A111C A120G A145C C169U U176C, the reverse-splicing fitness turned out to be 0.00886.

In the case of A111U A120U C150U U176G, the reverse-splicing fitness was found to be 0.027.

Turning to C82A A111C A120C A145C C150U C169G U176C, the reverse-splicing fitness was 0.0178.

For C82U A111G A120U A145G C150A C169A U176A, the reverse-splicing fitness stood at 0.00624.

With A145C C150G C169U U176A, the reverse-splicing fitness worked out at 0.0183.

In the case of A111U A120C A145C U176C, the reverse-splicing fitness is 0.243.

On to C82A C150G, for which the reverse-splicing fitness worked out at 0.0487.

Regarding A120G A145G C150G C169A U176G, the reverse-splicing fitness was 0.00777.

As to C82U A120U C150A, the reverse-splicing fitness amounted to 0.0169.

For C82A A145G C150U C169U, the reverse-splicing fitness is 0.0162.

Consider C82A A111G A120G A145C C169U, for which the reverse-splicing fitness was 0.0103.

Consider C82U A120U A145U C169G U176A, for which the reverse-splicing fitness is 0.00182.

As for C82U A120U A145U C169G U176C, the reverse-splicing fitness came out at 0.00267.

Regarding C82G A111G A120C A145U C150U C169U U176C, the reverse-splicing fitness stood at 0.0143.

For C169U U176G, the reverse-splicing fitness was found to be 0.0131.

Regarding C82G A120U A145U C150G C169G U176G, the reverse-splicing fitness turned out to be 0.00182.

Take C82G A111G A120U A145G C150A C169G U176A: the reverse-splicing fitness came out at 0.0128.

As to A111U A120C A145C C150G C169A U176G, the reverse-splicing fitness stood at 0.00509.

Consider A111G A120G U176C, for which the reverse-splicing fitness was determined as 0.117.

Regarding C82U A111G A120C C150U, the reverse-splicing fitness turned out to be 0.0325.

Regarding C82A A145C C150G C169A U176A, the reverse-splicing fitness was determined as 0.00836.

Regarding C82U A111G A120U C169A U176G, the reverse-splicing fitness was found to be 0.00189.

With A111U A120C C150A C169U U176C, the reverse-splicing fitness is 0.0196.

Turning to C82A A111U C150A C169U U176C, the reverse-splicing fitness was found to be 0.0171.

As for C82G A111U A120U A145G C150A C169G U176C, the reverse-splicing fitness was 0.00577.

Consider C82G A145G C150A C169G, for which the reverse-splicing fitness was determined as 0.00861.

Consider C82G A120G A145U C169A U176C, for which the reverse-splicing fitness worked out at 0.0199.

On to C82G A120C A145U C150U C169A U176G, for which the reverse-splicing fitness came to 0.00538.

Take C82G A111U A120C C150U C169U U176C: the reverse-splicing fitness came to 0.0139.

As for C82G A145U C150U C169G U176A, the reverse-splicing fitness was determined as 0.0117.

Consider A111C A145C C150U C169G, for which the reverse-splicing fitness turned out to be 0.0204.

In the case of C82U A111G A120C A145C C150U C169G U176G, the reverse-splicing fitness was determined as 0.00444.
